Measured values: publication doi:10.1101/2021.06.09.447721

Target: GST-NET-Ct^ΔMIM (human) (UniProt P23975)
Assay: pull-down

Question: With “MAD2 (endogenous) (from UniProt Q13257 1-205) (natural protein)” as the substance, how does the reduction of MAD2 binding against wild type GST-NET-Ct read?
Answer: The reduction of MAD2 binding against wild type GST-NET-Ct was 70%.
